Test results from US6479459 (IMMUNEX, dated 2002).

Target: T1, soluble elk/Fc fusion protein (rat elk extracellular domain fused to human IgG1 Fc) (rat; human, UniProt P09759 18-540; P01857 99-330 = IgG part, limits assumed)
T1 construct: extracellular domain;domain: Fc region; Expressed transiently in mammalian host cells and purified on protein A sepharose
Experiment: Scatchard analysis; elk/Fc at various concentrations on CV1-EBNA-1 cells expressing LERK-5, detected with 125I-mouse anti-human IgG
Protocol: CV1-EBNA-1 cells in 10 cm² dishes were transfected with the recombinant expression vector containing LERK-5 DNA. The CV-1/EBNA-1 cell line (ATCC CRL 10478) constitutively expresses EBV nuclear antigen-1 driven from the CMV immediate-early enhancer/promoter. CV1-EBNA-1 was derived from the African Green Monkey kidney cell line CV-1 (ATCC CCL 70), as described by McMahan et al. (*EMBO J*. 10:2821, 1991).
The transfected cells were cultured for 24 hours, and the cells in each dish then were split into a 24-well plate. After culturing an additional 48 hours, a binding assay was conducted by the following procedure. The transfected cells (about 4×10^4 cells/well) were washed with BM-NFDM, which is binding medium (RPMI 1640 containing 25 mg/ml bovine serum albumin, 2 mg/ml sodium azide, 20 mM Hepes pH 7.2) to which 50 mg/ml nonfat dry milk has been added. The cells then were incubated for 1 hour at 37° C. with various concentrations of the elk/Fc fusion protein prepared in Example 2 or the hek/Fc fusion protein prepared in Example 3. Cells then were washed and incubated with a constant saturating concentration of a ^125I-mouse anti-human IgG in binding medium, with gentle agitation for 1 hour at 37° C. After extensive washing, cells were released via trypsinization. […]

T1 sequence (P09759 other isoform, or with tags, fused parts or gaps limits assumed): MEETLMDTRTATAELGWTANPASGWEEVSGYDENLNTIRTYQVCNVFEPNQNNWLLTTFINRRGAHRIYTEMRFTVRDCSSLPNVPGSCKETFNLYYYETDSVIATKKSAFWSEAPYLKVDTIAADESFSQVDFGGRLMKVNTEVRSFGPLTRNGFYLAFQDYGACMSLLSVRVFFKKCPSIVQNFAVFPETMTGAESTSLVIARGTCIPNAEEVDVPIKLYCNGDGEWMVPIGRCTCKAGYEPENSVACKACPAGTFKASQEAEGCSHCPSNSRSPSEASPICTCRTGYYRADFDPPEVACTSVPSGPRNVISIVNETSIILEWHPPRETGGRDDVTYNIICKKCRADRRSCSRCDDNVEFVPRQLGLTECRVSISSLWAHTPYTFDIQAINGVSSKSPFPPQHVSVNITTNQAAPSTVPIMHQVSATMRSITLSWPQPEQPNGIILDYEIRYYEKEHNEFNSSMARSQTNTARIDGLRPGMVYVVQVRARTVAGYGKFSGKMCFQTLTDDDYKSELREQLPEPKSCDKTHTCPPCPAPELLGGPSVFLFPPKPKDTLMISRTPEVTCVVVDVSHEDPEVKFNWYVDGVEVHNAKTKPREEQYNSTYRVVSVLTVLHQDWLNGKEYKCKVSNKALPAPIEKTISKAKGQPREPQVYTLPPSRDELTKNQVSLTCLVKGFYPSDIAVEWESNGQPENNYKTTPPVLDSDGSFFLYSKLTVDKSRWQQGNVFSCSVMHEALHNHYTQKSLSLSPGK

Ka: 1.05e+09 M⁻¹
B1: human LERK-5 (recombinant, full length, expressed on the surface of transfected CV1-EBNA-1 cells) (ligand)
chain: KSIVLEPIYWNSSNSKFLPGQGLVLYPQIGDKLDIICPKVDSKTVGQYEYYKVYMVDKDQADRCTIKKENTPLLNCAKPDQDIKFTIKFQEFSPNLWGLEFQKNKDYYIISTSNGSLEGLDNQEGGVCQTRAMKILMKVGQDASSAGSTRNKDPTRRPELEAGTNGRSSTTSPFVKPNPGSSTDGNSAGHSGNNILGSEVALFAGIASGCIIFIVIIITLVVLLLKYRRRHRKHSPQHTTTLSLSTLATPKRSGNNNGSEPSDIIIPLRTADSVFCPHYEKVSGDYGHPVYIVQEMPPQSPANIYYKV
notes: The whole coding region of clone λ6 was expressed from pDC410 in CV1-EBNA-1 cells; also called clone λ6 protein
